From IntAct's records for PubMed 29610859

Molecular target: ubql1_human UBQLN1 (UniProt Q9UMX0)
Sequence (Q9UMX0 whole entry): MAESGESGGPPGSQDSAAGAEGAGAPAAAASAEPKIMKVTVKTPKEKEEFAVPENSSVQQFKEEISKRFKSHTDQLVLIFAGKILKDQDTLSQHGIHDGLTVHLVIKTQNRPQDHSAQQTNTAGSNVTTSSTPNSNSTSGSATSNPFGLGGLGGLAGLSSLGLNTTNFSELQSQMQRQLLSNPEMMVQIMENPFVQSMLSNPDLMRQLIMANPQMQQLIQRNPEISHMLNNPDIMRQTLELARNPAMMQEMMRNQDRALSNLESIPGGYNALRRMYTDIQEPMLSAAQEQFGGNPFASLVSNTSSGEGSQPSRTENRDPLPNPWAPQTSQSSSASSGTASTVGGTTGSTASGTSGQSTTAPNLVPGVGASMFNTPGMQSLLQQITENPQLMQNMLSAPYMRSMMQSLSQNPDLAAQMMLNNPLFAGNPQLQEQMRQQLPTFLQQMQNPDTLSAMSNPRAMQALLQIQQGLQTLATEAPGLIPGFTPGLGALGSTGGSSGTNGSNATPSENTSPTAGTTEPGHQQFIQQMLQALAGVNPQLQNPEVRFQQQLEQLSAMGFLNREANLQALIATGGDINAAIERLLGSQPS

effect of a mutation on the interaction: with no effect
Substance: Cytochrome c oxidase subunit 1 (Homo sapiens) (from UniProt P00395) V83I
